The text below walks through data of article PMC11333492 (Nature Communications, 2024).

This experiment concerns the target T1, FluPolB (influenza B/Memphis/13/2003 polymerase heterotrimer) (influenza B/Memphis/13/2003, UniProt Q5V8Z9;Q5V8Y6;Q5V8X3).
T1 construct: copies: + +
Nature of the experiment: SEC. The note with it: both partners purified.

B1: hANP32A LCAR alone (144-249) (domain or fragment)
chain: YLDGYDRDDKEAPDSDAEGYVEGLDDEEEDEDEEEYDEDAQVVEDEEDEDEEEEGEEEDVSGEEEEDEEGYNDGEVDDEEDEEELGEEERGQKRKREPEDEGEDDD
B1: the binding result is reported as “binds”.
